Assay results as given in patent publication US20260125451A1.

B1: B746201 (protein)
heavy: EVQLVQSGAEVKKPGESLKISCKGSGYIFTNYWIAWVRQMPGKGLESMGIIYPGDSDIRYSPSFQGQVTISADKSITTAYLQWSSLKASDTAMYYCARHDIEGFDYWGRGTLVTVSSASTKGPSVFPLAPSSKSTSGGTAALGCLVKDYFPEPVTVSWNSGALTSGVHTFPAVLQSSGLYSLSSVVTVPSSSLGTQTYICNVNHKPSNTKVDKRVEPKSCDKTHTCPPCPAPEFEGGPSVFLFPPKPKDTLMISRTPEVTCVVVDVSHEDPEVKFNWYVDGVEVHNAKTKPREEQYNSTYRVVSVLTVLHQDWLNGKEYKCKVSNKALPASIEKTISKAKGQPREPQVYTLPPSRDELTKNQVSLTCLVKGFYPSDIAVEWESNGQPENNYKTTPPVLDSDGSFFLYSKLTVDKSRWQQGNVFSCSVMHEALHNHYTQKSLSLSPGKGGGGSGGGGSGGGGSMLQMAGQCSQNEYFDSLLHACIPCQLRCSSNTPPLTCQRYCSTSCREEQGEFYDHLLRDCISCASICGQHPKQCAAFCE
light: EIVLTQSPGTLSLSPGERATLSCRASQSVSSSFFAWYQQKPGQAPRLLIYGASSRATGIPDRLSGSGSGTDFTLTITRLEPEDFAVYYCQQYDSSAITFGQGTRLEIKRTVAAPSVFIFPPSDEQLKSGTASVVCLLNNFYPREAKVQWKVDNALQSGNSQESVTEQDSKDSTYSLSSTLTLSKADYEKHKVYACEVTHQGLSSPVTKSFNRGEC
B2: B805201 (protein)
heavy: EVQLVQSGAEVKKPGESLKISCKGSGYIFTNYWIAWVRQMPGKGLESMGIIYPGDSDIRYSPSFQGQVTISADKSITTAYLQWSSLKASDTAMYYCARHDIEGFDYWGRGTLVTVSSASTKGPSVFPLAPSSKSTSGGTAALGCLVKDYFPEPVTVSWNSGALTSGVHTFPAVLQSSGLYSLSSVVTVPSSSLGTQTYICNVNHKPSNTKVDKRVEPKSCDKTHTCPPCPAPEFEGGPSVFLFPPKPKDTLMISRTPEVTCVVVDVSHEDPEVKFNWYVDGVEVHNAKTKPREEQYNSTYRVVSVLTVLHQDWLNGKEYKCKVSNKALPASIEKTISKAKGQPREPQVYTLPPSRDELTKNQVSLTCLVKGFYPSDIAVEWESNGQPENNYKTTPPVLDSDGSFFLYSKLTVDKSRWQQGNVFSCSVMHEALHNHYTQKSLSLSPGKGGGGSGGGGSGGGGSSTSCREEQGEFYDHLLRDCISCASICGQHPKQCAAFCE
light: B1 light
B3: Telitacicept (RCT-18) (Fc fusion)
chain: SRVDQEERFPQGLWTGVAMRSCPEEQYWDPLLGTCMSCKTICNHQSQRTCAAFCRSLSCRKEQGKFYDHLLRDCISCASICGQHPKQCAYFCENKLRSPVNLPPELDKTHTCPPCPAPEAEGAPSVFLFPPKPKDTLMISRTPEVTCVVVDVSHEDPEVKFNWYVDGVEVHNAKTKPREEQYNSTYRVVSVLTVLHQDWLNGKEYKCKVSNKALPSSIEKTISKAKGQPREPQVYTLPPSRDELTKNQVSLTCLVKGFYPSDIAVEWESNGQPENNYKTTPPVLDSDGSFFLYSKLTVDKSRWQQGNVFSCSVMHEALHNHYTQKSLSLSPGK
B4: B637302 (protein)
heavy: EVQLVQSGAEVKKPGESLKISCKGSGYIFTNYWIAWVRQMPGKGLESMGIIYPGDSDIRYSPSFQGQVTISADKSITTAYLQWSSLKASDTAMYYCARHDIEGFDYWGRGTLVTVSSASTKGPSVFPLAPSSKSTSGGTAALGCLVKDYFPEPVTVSWNSGALTSGVHTFPAVLQSSGLYSLSSVVTVPSSSLGTQTYICNVNHKPSNTKVDKRVEPKSCDKTHTCPPCPAPEFEGGPSVFLFPPKPKDTLMISRTPEVTCVVVDVSHEDPEVKFNWYVDGVEVHNAKTKPREEQYNSTYRVVSVLTVLHQDWLNGKEYKCKVSNKALPASIEKTISKAKGQPREPQVYTLPPSRDELTKNQVSLTCLVKGFYPSDIAVEWESNGQPENNYKTTPPVLDSDGSFFLYSKLTVDKSRWQQGNVFSCSVMHEALHNHYTQKSLSLSPGK
light: EIVLTQSPGTLSLSPGERATLSCRASQSVSSSFFAWYQQKPGQAPRLLIYGASSRATGIPDRLSGSGSGTDFTLTITRLEPEDFAVYYCQQYDSSAITFGQGTRLEIKRTVAAPSVFIFPPSDEQLKSGTASVVCLLNNFYPREAKVQWKVDNALQSGNSQESVTEQDSKDSTYSLSSTLTLSKADYEKHKVYACEVTHQGLSSPVTKSFNRGECGGGGSGGGGSMLQMAGQCSQNEYFDSLLHACIPCQLRCSSNTPPLTCQRYCSTSCREEQGEFYDHLLRDCISCASICGQHPKQCAAFCE
B5: B606401 (protein)
heavy: B4 heavy
light: EIVLTQSPGTLSLSPGERATLSCRASQSVSSSFFAWYQQKPGQAPRLLIYGASSRATGIPDRLSGSGSGTDFTLTITRLEPEDFAVYYCQQYDSSAITFGQGTRLEIKRTVAAPSVFIFPPSDEQLKSGTASVVCLLNNFYPREAKVQWKVDNALQSGNSQESVTEQDSKDSTYSLSSTLTLSKADYEKHKVYACEVTHQGLSSPVTKSFNRGECGGGGSGGGGSSTSCREEQGEFYDHLLRDCISCASICGQHPKQCAAFCE

Each binder was assayed against BAFF and ARPIL (assay: cell-based or functional assay).
B1 gave a CD27+ CD38+ plasma cell count, mean, BAFF + APRIL-induced, drug at 10 nM of 575 count, a CD27+ CD38+ plasma cell count, mean, BAFF + APRIL-induced, drug at 100 nM of 520 count and a CD27+ CD38+ plasma cell count, mean, BAFF + APRIL-induced, drug at 1000 nM of 410 count.
For B2, the CD27+ CD38+ plasma cell count, mean, BAFF + APRIL-induced, drug at 10 nM was 434 count, the CD27+ CD38+ plasma cell count, mean, BAFF + APRIL-induced, drug at 100 nM was 426 count and the CD27+ CD38+ plasma cell count, mean, BAFF + APRIL-induced, drug at 1000 nM was 438 count.
B3 was tested, and the CD27+ CD38+ plasma cell count, mean, BAFF + APRIL-induced, drug at 10 nM was 2450 count, the CD27+ CD38+ plasma cell count, mean, BAFF + APRIL-induced, drug at 100 nM was 510 count and the CD27+ CD38+ plasma cell count, mean, BAFF + APRIL-induced, drug at 1000 nM was 230 count.
Binder B4 has a CD27+ CD38+ plasma cell count, mean, BAFF + APRIL-induced, drug at 10 nM of 563 count, a CD27+ CD38+ plasma cell count, mean, BAFF + APRIL-induced, drug at 100 nM of 482 count and a CD27+ CD38+ plasma cell count, mean, BAFF + APRIL-induced, drug at 1000 nM of 137 count.
B5 gave a CD27+ CD38+ plasma cell count, mean, BAFF + APRIL-induced, drug at 10 nM of 654 count, a CD27+ CD38+ plasma cell count, mean, BAFF + APRIL-induced, drug at 100 nM of 549 count and a CD27+ CD38+ plasma cell count, mean, BAFF + APRIL-induced, drug at 1000 nM of 426 count.
